Source: patent US8709741B2, “Methods of diagnosing a plasmodium infection” (priority 2009, dated 2014)
Where two headings read alike, the source gives them in different places.

Experiments:
[1] = 48 h-hydrolysis of plasma by sPLA2s at IC50 concentrations (NEFA); assay type: biochemical, human; settings: GX 3 nM, GIIF full length or truncated 15 nM, bee venom 15 pM; 37° C.
Protocol: Crude human plasma was incubated with 3 nM of recombinant human GX sPLA2 (⋄), 15 nM of the full length (▪) or truncated (□) recombinant human GIIF sPLA2, and 15 pM of the bee venom sPLA2 (♦), for 48 h at 37° C. Aliquots were taken at times 0 h, 6 h, 22 h, 30 h and 48 h of incubation. NEFAs in each aliquot were measured using the NEFA-C kit (WAKO);
Crude human plasma was incubated with 3 nM of recombinant human GX sPLA2, 15 nM of the full length or the truncated form (IIFΔC) of recombinant human GIIF sPLA2, and 15 pM of the bee venom sPLA2, for 48 h at 37° C. Aliquots (7 μL) were taken at times 0 h, 6 h, 22 h, 30 h and 48 h of incubation. NEFAs were measured in each aliquot by using the NEFA-C kit (WAKO). Experiment was repeated twice with different plasmas.

[2] = test system: P. falciparum; experiment: Anti-Plasmodium activity assay in Albumax II (serum substitute); assay type: cell-based; settings: Albumax II
Protocol: The chloroquine-resistant P. falciparum FcB1/Colombian strain was used. Under the following culture conditions, the in vitro life cycle of the FcB1 strain was 48 hours. Cultures were grown in complete medium consisting of RPMI 1640 (Life Technologies, Inc.) supplemented with 11 mM glucose, 27.5 mM NaHCO3, 100 UI/mL penicillin, 100 μg/mL streptomycin, adjusted to pH 7.4 before addition of heat-inactivated human serum (A+ blood group, 8% final) or Albumax II® (0.5% final), according to the procedure of Trager and Jensen (1976). Parasites were routinely grown at 37° C. in human A+ RBCs (Red blood cells) at a 2% haematocrit and 2-6% parasitemia, in a 3% CO2, 6% O2 and 91% N2 atmosphere. Semi-synchronized cultures were established by Sorbitol (Lambros) treatment. […] Parasitaemia and stage distribution were determined by optical examination of Diff-Quick stained culture smears. […]
Dried preparations of the purified recombinant human sPLA2s were re-suspended at high concentration (usually 50 μM) in RPMI 0.05% BSA, and then tested individually for their capacity to inhibit the in vitro intra-erythrocytic development of P. falciparum. […] Radioactivity was measured with a 1450 Microbeta counter (Wallac, Perkin Elmer). Percentage of growth inhibition was calculated from the parasite-associated radioactivity compared with control without sPLA2. Values for the IC50 were determined from dose-response curves. […]

[3] = test system: P. falciparum-infected erythrocytes; experiment: Hydrolysis of serum-derived and Albumax II-derived parasite cultures (NEFA); assay type: cell-based, human; settings: 50 nM, 6 h, schizont-enriched culture
Protocol: Parasites were grown in medium containing either 8% human serum (iRBC/S) or 0.5% Albumax II® (iRBC/A). Cultures were semi-synchronized so that they contain mainly mature parasites at the time of the experiment. Both cultures (2.5-3% parasitaemia) were then washed and cells were re-suspended at 50% haematocrit in RPMI 0.05% BSA with or without 50 nM of recombinant GX sPLA2, and incubated for 6 h in culture conditions. Non-infected RBCs (red blood cells) and human serum were processed similarly. Cell supernatants and serum were frozen at −20° C.; erythrocyte ghosts were prepared and frozen. NEFAs in each sample were measured in duplicate upon thawing, using the NEFA-C kit (WAKO). NEFA amount in healthy RBCs (RBC) and in infected cultures (iRBC) is expressed as the sum of NEFAs from paired ghosts and supernatants. Values are the mean of the duplicate measurement, subtracted for values in the absence of enzyme. The experiment was repeated twice and gave similar qualitative results. Results from one experiment are shown;
Parasites were grown for several cycles in culture medium supplemented either with 8% human serum or with 0.5% Albumax II®. Cultures were semi-synchronized by Sorbitol treatment 2-3 days prior to the experiment. […] NEFAs were measured using the NEFA-C kit (WAKO). […]

[4] = test system: P. falciparum FcB1/Colombian strain; experiment: Anti-Plasmodium activity assay (dose-response, 3H-hypoxanthine incorporation), culture with human serum; assay type: cell-based
Protocol: The chloroquine-resistant P. falciparum FcB1/Colombian strain was used. Under the following culture conditions, the in vitro life cycle of the FcB1 strain was 48 hours. Cultures were grown in complete medium consisting of RPMI 1640 (Life Technologies, Inc.) supplemented with 11 mM glucose, 27.5 mM NaHCO3, 100 UI/mL penicillin, 100 μg/mL streptomycin, adjusted to pH 7.4 before addition of heat-inactivated human serum (A+ blood group, 8% final) or Albumax II® (0.5% final), according to the procedure of Trager and Jensen (1976). Parasites were routinely grown at 37° C. in human A+ RBCs (Red blood cells) at a 2% haematocrit and 2-6% parasitemia, in a 3% CO2, 6% O2 and 91% N2 atmosphere. Semi-synchronized cultures were established by Sorbitol (Lambros) treatment. Highly synchronized cultures (4 hour-window synchronization) were obtained by successive Plamion (Pasvol) and Sorbitol treatments. Parasitaemia and stage distribution were determined by optical examination of Diff-Quick stained culture smears. Parasitaemia (expressed in percent) is hundred times the number of parasitized erythrocytes divided by the total number of erythrocytes.
Dried preparations of the purified recombinant human sPLA2s were re-suspended at high concentration (usually 50 μM) in RPMI 0.05% BSA, and then tested individually for their capacity to inhibit the in vitro intra-erythrocytic development of P. falciparum. Dose-response assays based on ^3H-hypoxanthine incorporation by growing parasites were performed as in Guillaume et al. (2004). Radioactivity was measured with a 1450 Microbeta counter (Wallac, Perkin Elmer). Percentage of growth inhibition was calculated from the parasite-associated radioactivity compared with control without sPLA2. Values for the IC50 were determined from dose-response curves.

B1: X: recombinant human group X secreted phospholipase A2 (protein, UniProt O15496 43-165, looked up)
Group 10 secretory …: GILELAGTVGCVGPRTPIAYMKYGCFCGLGGHGQPRDAIDWCCHGHDCCYTRAEEAGCSPKTERYSWQCVNQSVLCGPAENKCQELLCKCDQEIANCLAQTEYNLKYLFYPQFLCEPDSPKCD
- hydrolysis of plasma over 48 h [1]: the most active
- inhibition of Plasmodium growth in Albumax II [2]: does not efficiently inhibit Plasmodium growth
- NEFA release from Albumax II-derived versus serum-derived parasite culture [3]: released at the same rate
- IC50 ([4]; Table II, read-out: IC50 (nM), anti-P. falciparum activity given for comparison): 2.9 ± 2.4 nM
- IC50 ([4]; culture in human red blood cells and serum, mean of independent dose-response assays, read-out: IC50 ± SD (anti-P. falciparum activity)): 2.9 ± 2.4 nM
- inhibition of P. falciparum development in vitro ([4]; standard P. falciparum cultures with serum): active against P. falciparum
